These results are taken from article doi:10.1101/464701 (bioRxiv, 2018).

To fix the notation:
B3: MukF (E. coli kleisin of MukBEF) (natural protein)
chain: MSEFSQTVPELVAWARKNDFSISLPVDRLSFLLAVATLNGERLDGEMSEGELVDAFRHVSDAFEQTSETIGVRANNAINDMVRQRLLNRFTSEQAEGNAIYRLTPLGIGITDYYIRQREFSTLRLSMQLSIVAGELKRAADAAEEGGDEFHWHRNVYAPLKYSVAEIFDSIDLTQRLMDEQQQQVKDDIAQLLNKDWRAAISSCELLLSETSGTLRELQDTLEAAGDKLQANLLRIQDATMTHDDLHFVDRLVFDLQSKLDRIISWGQQSIDLWIGYDRHVHKFIRTAIDMDKNRVFAQRLRQSVQTYFDEPWALTYANADRLLDMRDEEMALRDEEVTGELPEDLEYEEFNEIREQLAAIIEEQLAVYKTRQVPLDLGLVVREYLSQYPRARHFDVARIVIDQAVRLGVAQADFTGLPAKWQPINDYGAKVQAHVIDKY

Test [1] concerns the target Smc1-Smc3-Scc1 trimer (S. cerevisiae cohesin) (S. cerevisiae, UniProt P32908;P47037;Q12158). Kind of test: SEC. For orientation: SEC sorts molecules by how far they enter the pores of the column.
The target in test [2] is T1, MukB (E. coli SMC protein of MukBEF) (E. coli, UniProt P22523 1-1486).
T1 sequence: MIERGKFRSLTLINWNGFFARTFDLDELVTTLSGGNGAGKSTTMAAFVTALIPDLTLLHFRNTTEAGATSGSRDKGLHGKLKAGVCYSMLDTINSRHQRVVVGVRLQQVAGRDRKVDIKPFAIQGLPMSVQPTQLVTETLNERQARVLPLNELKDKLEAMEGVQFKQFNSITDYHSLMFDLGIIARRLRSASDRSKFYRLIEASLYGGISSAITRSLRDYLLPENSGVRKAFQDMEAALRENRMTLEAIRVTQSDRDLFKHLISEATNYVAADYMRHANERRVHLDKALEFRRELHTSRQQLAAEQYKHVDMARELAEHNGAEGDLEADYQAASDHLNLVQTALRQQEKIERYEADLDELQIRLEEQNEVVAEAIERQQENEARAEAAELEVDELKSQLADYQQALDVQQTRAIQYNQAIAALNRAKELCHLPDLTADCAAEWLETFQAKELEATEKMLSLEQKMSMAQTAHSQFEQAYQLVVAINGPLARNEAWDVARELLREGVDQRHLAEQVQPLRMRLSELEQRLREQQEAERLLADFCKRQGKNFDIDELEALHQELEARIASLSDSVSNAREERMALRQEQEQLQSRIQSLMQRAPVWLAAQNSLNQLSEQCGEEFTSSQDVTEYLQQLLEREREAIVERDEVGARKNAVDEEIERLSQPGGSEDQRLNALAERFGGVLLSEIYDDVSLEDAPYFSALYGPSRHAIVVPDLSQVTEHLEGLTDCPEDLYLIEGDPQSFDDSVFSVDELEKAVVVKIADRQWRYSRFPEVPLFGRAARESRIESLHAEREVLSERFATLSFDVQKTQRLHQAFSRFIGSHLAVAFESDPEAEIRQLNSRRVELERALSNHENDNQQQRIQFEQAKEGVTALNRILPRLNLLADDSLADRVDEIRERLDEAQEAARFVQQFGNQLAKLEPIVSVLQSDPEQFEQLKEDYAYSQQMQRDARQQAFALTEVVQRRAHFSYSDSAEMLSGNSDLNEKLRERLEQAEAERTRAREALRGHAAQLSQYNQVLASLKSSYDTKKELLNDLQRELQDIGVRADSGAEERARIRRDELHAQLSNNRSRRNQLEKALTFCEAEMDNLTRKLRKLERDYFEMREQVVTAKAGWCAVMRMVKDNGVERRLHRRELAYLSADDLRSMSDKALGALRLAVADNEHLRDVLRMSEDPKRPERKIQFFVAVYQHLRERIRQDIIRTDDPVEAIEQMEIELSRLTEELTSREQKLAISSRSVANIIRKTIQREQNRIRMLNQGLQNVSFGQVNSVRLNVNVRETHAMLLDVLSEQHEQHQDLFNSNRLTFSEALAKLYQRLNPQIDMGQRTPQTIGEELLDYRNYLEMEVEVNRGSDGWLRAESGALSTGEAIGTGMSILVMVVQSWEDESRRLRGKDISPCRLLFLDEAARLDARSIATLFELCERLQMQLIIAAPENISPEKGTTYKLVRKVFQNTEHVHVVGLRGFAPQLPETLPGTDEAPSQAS
Kind of test: SEC.

Test [3] addresses B3. Description: cross-linking.
The target of test [4] is B3. Kind of test: SEC.

Chain of Smc1-Smc3-Scc1 trimer (S. cerevisiae cohesin) (P32908 whole entry, chain 1 of 3): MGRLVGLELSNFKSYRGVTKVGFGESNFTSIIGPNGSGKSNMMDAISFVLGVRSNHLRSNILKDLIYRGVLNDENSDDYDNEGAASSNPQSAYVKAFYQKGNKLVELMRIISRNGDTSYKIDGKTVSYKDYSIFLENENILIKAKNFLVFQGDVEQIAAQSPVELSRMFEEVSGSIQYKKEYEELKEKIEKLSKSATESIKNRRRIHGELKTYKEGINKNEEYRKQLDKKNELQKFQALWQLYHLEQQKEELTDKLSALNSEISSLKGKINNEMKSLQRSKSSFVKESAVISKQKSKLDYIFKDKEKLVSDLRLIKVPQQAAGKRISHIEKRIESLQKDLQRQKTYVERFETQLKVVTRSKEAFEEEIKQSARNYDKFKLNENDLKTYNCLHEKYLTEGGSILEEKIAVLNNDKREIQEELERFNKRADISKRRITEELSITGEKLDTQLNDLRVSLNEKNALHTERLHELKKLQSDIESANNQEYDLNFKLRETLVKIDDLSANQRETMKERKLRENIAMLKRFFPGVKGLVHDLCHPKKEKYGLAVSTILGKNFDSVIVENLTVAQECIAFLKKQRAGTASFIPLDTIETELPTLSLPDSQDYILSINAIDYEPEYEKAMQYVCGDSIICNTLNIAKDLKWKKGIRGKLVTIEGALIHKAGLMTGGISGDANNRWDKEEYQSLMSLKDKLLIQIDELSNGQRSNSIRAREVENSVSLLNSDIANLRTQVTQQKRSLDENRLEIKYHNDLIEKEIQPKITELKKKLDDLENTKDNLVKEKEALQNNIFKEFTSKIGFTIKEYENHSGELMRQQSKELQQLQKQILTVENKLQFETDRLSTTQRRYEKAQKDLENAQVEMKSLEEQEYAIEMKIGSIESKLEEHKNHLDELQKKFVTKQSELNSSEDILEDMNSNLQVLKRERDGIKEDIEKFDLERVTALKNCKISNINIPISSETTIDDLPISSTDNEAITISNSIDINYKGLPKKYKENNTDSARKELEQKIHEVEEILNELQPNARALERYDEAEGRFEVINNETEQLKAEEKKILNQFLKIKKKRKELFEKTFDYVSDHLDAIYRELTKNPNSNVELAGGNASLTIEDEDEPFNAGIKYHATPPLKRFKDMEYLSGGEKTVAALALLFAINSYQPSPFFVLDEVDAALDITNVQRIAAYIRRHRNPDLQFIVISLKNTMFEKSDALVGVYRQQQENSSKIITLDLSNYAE
Chain of Smc1-Smc3-Scc1 trimer (S. cerevisiae cohesin) (P47037 whole entry, chain 2 of 3): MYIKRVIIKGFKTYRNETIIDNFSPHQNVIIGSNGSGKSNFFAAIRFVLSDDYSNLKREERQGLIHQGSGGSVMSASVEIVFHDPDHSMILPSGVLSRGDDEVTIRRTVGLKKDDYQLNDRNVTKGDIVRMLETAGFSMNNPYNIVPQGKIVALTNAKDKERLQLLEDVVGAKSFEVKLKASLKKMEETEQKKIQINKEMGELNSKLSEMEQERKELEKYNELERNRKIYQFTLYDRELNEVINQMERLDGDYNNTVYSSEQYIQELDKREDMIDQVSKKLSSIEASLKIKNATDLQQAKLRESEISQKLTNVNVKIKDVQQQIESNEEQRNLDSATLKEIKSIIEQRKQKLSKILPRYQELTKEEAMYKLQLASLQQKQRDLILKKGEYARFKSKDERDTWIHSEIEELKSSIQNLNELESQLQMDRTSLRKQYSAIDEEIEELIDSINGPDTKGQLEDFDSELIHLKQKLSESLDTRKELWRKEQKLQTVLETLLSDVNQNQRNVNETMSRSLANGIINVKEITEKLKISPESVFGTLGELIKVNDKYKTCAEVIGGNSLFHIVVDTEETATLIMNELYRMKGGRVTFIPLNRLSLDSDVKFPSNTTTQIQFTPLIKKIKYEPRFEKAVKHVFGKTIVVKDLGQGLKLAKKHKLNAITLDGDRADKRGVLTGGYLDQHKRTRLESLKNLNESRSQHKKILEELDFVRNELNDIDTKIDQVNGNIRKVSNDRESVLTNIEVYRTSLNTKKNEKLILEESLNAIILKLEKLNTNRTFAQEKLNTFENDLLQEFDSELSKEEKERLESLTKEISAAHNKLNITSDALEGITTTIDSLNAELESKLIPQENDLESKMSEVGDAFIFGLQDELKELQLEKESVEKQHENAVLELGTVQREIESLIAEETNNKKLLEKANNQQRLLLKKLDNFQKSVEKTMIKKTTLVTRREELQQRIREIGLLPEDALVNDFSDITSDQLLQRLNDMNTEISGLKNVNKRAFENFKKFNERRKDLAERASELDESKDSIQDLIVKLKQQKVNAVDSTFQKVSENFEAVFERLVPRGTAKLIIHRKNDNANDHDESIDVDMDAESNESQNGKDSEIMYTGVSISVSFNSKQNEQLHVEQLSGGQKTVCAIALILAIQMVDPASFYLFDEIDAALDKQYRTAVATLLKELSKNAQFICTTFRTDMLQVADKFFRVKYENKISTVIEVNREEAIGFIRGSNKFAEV
Chain of Smc1-Smc3-Scc1 trimer (S. cerevisiae cohesin) (Q12158 whole entry, chain 3 of 3): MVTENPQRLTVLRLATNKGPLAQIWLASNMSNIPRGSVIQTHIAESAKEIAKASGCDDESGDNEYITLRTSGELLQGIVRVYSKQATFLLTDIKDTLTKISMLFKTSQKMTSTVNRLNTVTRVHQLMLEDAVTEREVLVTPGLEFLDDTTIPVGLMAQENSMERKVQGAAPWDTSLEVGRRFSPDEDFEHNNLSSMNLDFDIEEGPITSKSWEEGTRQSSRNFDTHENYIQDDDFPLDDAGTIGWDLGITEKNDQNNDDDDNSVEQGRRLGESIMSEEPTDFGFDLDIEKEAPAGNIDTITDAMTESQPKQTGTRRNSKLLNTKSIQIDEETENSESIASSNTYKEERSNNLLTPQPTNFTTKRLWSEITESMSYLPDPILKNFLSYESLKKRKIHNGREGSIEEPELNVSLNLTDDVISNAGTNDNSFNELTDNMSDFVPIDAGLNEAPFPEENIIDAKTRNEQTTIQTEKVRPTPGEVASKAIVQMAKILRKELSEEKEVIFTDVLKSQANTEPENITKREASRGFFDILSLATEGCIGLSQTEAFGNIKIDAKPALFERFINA

B1: Scc3 (S. cerevisiae cohesin HAWK protein), recombinant (natural protein)
chain: MTAVRRSTRIRTKSQVIEEDYDDEQNTSAQHVESDKITAKTQHEEEEEQDTGESEESSSEDDYEDQDDDDYVDTATAKRKSRKRKPKSASNTSSKRQKKKPTSAQKSAVSHAPAYHRSKKDQDQYLEIAKDFQPTELFDILSTSEDVSIEELLREWLETYSENRDKFLQEFINLLLNCCGSVARVEDHDVHSNESSNETIGEIQLLFQRQKLHEFYLLISKENKKRKNFKMGPLYQNFAEFMTKLLEVANDLQLLYVESDEDDTQIVTGNLVLDLLTWLSSFSVCKIRCFRYISTLTLYLFQDYLTQQAVNLEKNYLAKLSKQLSLEEKKKRPNNKTLEKLESTIAETQGSKVVIDSIIDNIVKLCFVHRYKDVSDLIRSESMLHLSIWIKNYPEYFLKVTFLKYFGWLLSDNSVSVRLQVTKILPHLIIQNHNSKSTDNSAIRQVFERFKTKILEVAIRDVNLDVRIHSIQVLTEASSLGYLDDSEILIISSLMFDEEFDPFKTSSFNKRSKFLSTVAKFLARVIKEKFDEFIKTHEDLPKEVDGLEVGPVVQVGIFIKILNDSLIYHLKDCAEVDSRTKIRMLTQAAEFLSPYISTHLKTICNLLISDTESNELIQKLQNSANNNSDDEDVDDEELDITPLFPIDRNSTILYLNVFHGLCAGANNPKIQTKDSVKEIVLPLFYDLLNAASIESADILCPLLESFITFSLDDWISIGYETELKKITDKTIKAFMDSTIGNSKVDMKYDIFAKFIHHIHHFEKKELQEKFLNQIATLKIHLKKFLQEKMDPNNSRDDYKDLTCSLYELYINKLTILGRDYPIEVDEELLQLFLNNFVSRIPIMFQDFDDSTAQEINFKMLVLLATWNLEKWREIIEKVRDYENSISKDLRSVWKPIAAIIGRLNTLVISLAATNETFENINSLFYLKWSACTSLMDIIVAIKIFELKLPADATTWRYSMSEQFPFYLHDNASKVLLKIFLYLESLFAKQVDVQLERVADEDANLNDLPETGFFENIETEFLLFTVKLKGLMKLNILDERFASRVALNKEKLGPLFKKIVDDTIMENPEPNKKNIQKAKSNQTQREKAPLQPNSERETDHANTENNDPDIPMTIDLEPIEESSQNNSELAPIEEHPTVVDAIDNSDEITQD
With B1, in test [1], the binding result is listed as “binds”.

B2: Scc2 residues 151-1493 (S. cerevisiae cohesin loader), recombinant (domain or fragment)
chain: SNAGNLSFNDNSSNKKTKTSTGVTMTQANLAEQYLNDLKNILDIVGFDQNSAEIGNIEYWLQLPNKKFVLTTNCLTKLQMTIKNITDNPQLSNSIEITWLLRLLDVMVCNIKFSKSSLKMGLDDSMLRYIALLSTIVLFNIFLLGKNDSNLHRESYIMEPVNFLSDLIESLKILTIEYGSLKIEFDTFQEALELLPKYIRNGPFLDDNVTAKLVYIFSDLLMNNDIEATTNIQFQSFWDNVKRISSDILVSLFGSFDQQRGFIIEELLSHIEKLPTKRIQKKLRKVGNQNIYITDFTFTLMSMLENINCYSFCNQMKDIAPENIDLLKNEYKKQEEFLFNIVEHINDTILERFFKNPSALRYVIDNFVQDLLLLISSPQWPVTEKILSSLLKRLLSVYSPSMQVSANIETICLQLIGNIGSTIFDIKCSTRDHEDNNLIKMINYPETLPHFFKSFEECIAYNETIKCRRSATRFLWNLRLGTILILEEYTKDAKEQIITVDNELKKILEQIKDGGLGPELENREADFSTIKLDYFSILHAFELLNLYDPYLKLILSLLAKDKIKLRSTAIKCLSMLASKDKVILSNPMVKETIHRRLNDSSASVKDAILDLVSINSSYFEFYQQINNNYNDDSIMVRKHVLRINEKMYDETNDIVTKVYVIARILMKIEDEEDNIIDMARLILLNRWILKVHEVLDQPEKLKEISSSVLLVMSRVAIMNEKCSQLFDLFLNFYLLNKEAHSKEAYDKITHVLTILTDFLVQKIVELNSDDTNEKNSIVDKQNFLNLLAKFADSTVSFLTKDHITALYPYMVSDEKSDFHYYILQVFRCTFEKLANFKQKFLYDLETTLLSRLPKMNVREIDEAMPLIWSVATHRHDTARVAKACSSCLSHLHPYINKANNEEAAIVVDGKLQRLIYLSTGFARFCFPKPSNDKIAFLQEGETLYEHITKCLLVLSKDKITHVIRRVAVKNLTKLCGNHPKLFNSRHVLHLLDKEFQSDQLDIKLVILESLYDLFLLEERKSVRNTGVNSTLSSNSILKKKLLKTNRVEFANDGVCSALATRFLDNILQLCLLRDLKNSLVAIRLLKLILKFGYTNPSHSIPTVIALFASTSQYIRHVAYELLEDLFEKYETLVFSSLSRGVTKAIHYSIHTDEKYYYKHDHFLSLLEKLCGTGKKNGPKFFKVLKRIMQSYLDDITDLTSTNSSVQKSIFVLCTNISNITFVSQYDLVSLLKTIDLTTDRLKEVIMDEIGDNVSSLSVSEEKLSGIILIQLSLQDLGTYLLHLYGLRDDVLLLDIVEESELKNKQLPAKKPDISKFSAQLENIEQYSSNGKLLTYFRKHVKDT
Consider B2, for which the binding result in test [1] was “binds”.

In the case of B3, the binding result in test [2] is “binds”.

B4: MukEF complex (E. coli) (complex)
chain 1: MSSTNIEQVMPVKLAQALANPLFPALDSALRSGRHIGLDELDNHAFLMDFQEYLEEFYARYNVELIRAPEGFFYLRPRSTTLIPRSVLSELDMMVGKILCYLYLSPERLANEGIFTQQELYDELLTLADEAKLLKLVNNRSTGSDVDRQKLQEKVRSSLNRLRRLGMVWFMGHDSSKFRITESVFRFGADVRAGDDPREAQRRLIRDGEAMPIENHLQLNDETEENQPDSGEEE
chain 2: MSEFSQTVPELVAWARKNDFSISLPVDRLSFLLAVATLNGERLDGEMSEGELVDAFRHVSDAFEQTSETIGVRANNAINDMVRQRLLNRFTSEQAEGNAIYRLTPLGIGITDYYIRQREFSTLRLSMQLSIVAGELKRAADAAEEGGDEFHWHRNVYAPLKYSVAEIFDSIDLTQRLMDEQQQQVKDDIAQLLNKDWRAAISSCELLLSETSGTLRELQDTLEAAGDKLQANLLRIQDATMTHDDLHFVDRLVFDLQSKLDRIISWGQQSIDLWIGYDRHVHKFIRTAIDMDKNRVFAQRLRQSVQTYFDEPWALTYANADRLLDMRDEEMALRDEEVTGELPEDLEYEEFNEIREQLAAIIEEQLAVYKTRQVPLDLGLVVREYLSQYPRARHFDVARIVIDQAVRLGVAQADFTGLPAKWQPINDYGAKVQAHVIDKY
As for B4, the binding result in test [2] was “binds”.

B5: MukE (E. coli KITE protein of MukBEF), untagged, from the co-expressed holocomplex (natural protein)
chain: MSSTNIEQVMPVKLAQALANPLFPALDSALRSGRHIGLDELDNHAFLMDFQEYLEEFYARYNVELIRAPEGFFYLRPRSTTLIPRSVLSELDMMVGKILCYLYLSPERLANEGIFTQQELYDELLTLADEAKLLKLVNNRSTGSDVDRQKLQEKVRSSLNRLRRLGMVWFMGHDSSKFRITESVFRFGADVRAGDDPREAQRRLIRDGEAMPIENHLQLNDETEENQPDSGEEE
Take B5: the binding result in test [2] and in test [3] was “binds” in each case.

B6: MukE (E. coli) made as His6-SUMO-MukE for the MukEF preparation (natural protein)
chain: MSSTNIEQVMPVKLAQALANPLFPALDSALRSGRHIGLDELDNHAFLMDFQEYLEEFYARYNVELIRAPEGFFYLRPRSTTLIPRSVLSELDMMVGKILCYLYLSPERLANEGIFTQQELYDELLTLADEAKLLKLVNNRSTGSDVDRQKLQEKVRSSLNRLRRLGMVWFMGHDSSKFRITESVFRFGADVRAGDDPREAQRRLIRDGEAMPIENHLQLNDETEENQPDSGEEE
On to B6, for which the binding result in test [4] is “binds”.
